Measurements reported in patent US20250325643A1 (Genmab, published 2025).

Legend:
[1] = target: T1, human CD27 expressed on cells (T cells, transfected HEK293F cells, Daudi cells, NFκB-luc2/CD27 Jurkat … (human, UniProt P26842 20-240)); test: flow cytometry on T cells in human PBMC (endogenous CD27), PE-labelled goat anti-human IgG, median MFI PE
T1 construct: also called TNFRSF7
T1 sequence: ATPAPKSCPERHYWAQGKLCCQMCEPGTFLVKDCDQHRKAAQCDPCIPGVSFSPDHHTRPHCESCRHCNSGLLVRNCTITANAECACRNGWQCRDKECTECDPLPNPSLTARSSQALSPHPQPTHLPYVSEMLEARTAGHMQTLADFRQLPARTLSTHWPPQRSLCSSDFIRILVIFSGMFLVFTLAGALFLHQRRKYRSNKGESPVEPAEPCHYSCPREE
Method: (§1) Non-binding control antibody IgG1-b12-FEAR was used as negative control antibody. *N.B. IgG1-CD27-A, -B, -C, -D and -E carried mutations F405L-L234F-L235E-D265A in the IgG Fc domain, which are functionally irrelevant in the context of this experiment.
(§2) Cells were seeded in 96-wells plates (100,000 cells per well; Greiner Bio-one, Cat #650180) for sequential incubations, with washing steps in between with FACS buffer, consisting of PBS (Lonza, Cat #BE17-517Q)+1% BSA (Roche, Cat #10735086001)+0.02% Sodium Azide (Bio-World, Cat #41920044-3). The following incubations were applied: antibody concentration series (0.0001-10 μg/mL final concentration) for 30 min at 4° C.; live/dead marker FVS510 (BD, Cat #564406, diluted 1:1,000 in PBS) for 20 min at RT; PE-labeled polyclonal goat anti-human IgG (Jackson Immuno Research, Cat #109-116-098, diluted 1:500) for 30 min at 4° C.; and anti-CD3 antibody for T-cell identification (anti-human CD3: BD, Cat #555335, diluted 1:10; anti-cyno CD3: Miltenyi, Cat #130-091-998, diluted 1:10) for 30 min at 4° C. All samples were analyzed on a FACSCelesta flow cytometer (BD) and FlowJo software. Data were processed and visualized using GraphPad Prism.

[2] = target: T2, cynomolgus monkey CD27 expressed on cells (cynomolgus monkey T cells, transfected HEK293F cells) (cynomolgus monkey, UniProt P26842 20-260 (human entry)); test: flow cytometry on T cells in cynomolgus monkey PBMC (endogenous CD27), PE-labelled goat anti-human IgG, median MFI PE
T2 construct: also called cyno CD27
T2 chain: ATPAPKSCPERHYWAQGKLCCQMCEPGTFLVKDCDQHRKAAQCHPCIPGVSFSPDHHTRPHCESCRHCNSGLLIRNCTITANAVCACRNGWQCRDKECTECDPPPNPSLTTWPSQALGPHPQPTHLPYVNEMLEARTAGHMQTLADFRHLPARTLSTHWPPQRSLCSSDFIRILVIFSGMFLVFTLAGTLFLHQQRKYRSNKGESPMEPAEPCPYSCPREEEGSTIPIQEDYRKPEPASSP
Method: as §1, §2

[3] = target: T1, human CD27 expressed on cells (T cells, …); test: flow cytometry on HEK293F cells transiently transfected with human CD27, PE-labelled goat anti-human IgG, median MFI PE
[4] = target: T3, human CD27-A59T variant expressed on transiently transfected HEK293F cells (human, UniProt P26842 20-260); test: flow cytometry on HEK293F cells transiently transfected with human CD27-A59T, PE-labelled goat anti-human IgG, median MFI PE
T3 sequence: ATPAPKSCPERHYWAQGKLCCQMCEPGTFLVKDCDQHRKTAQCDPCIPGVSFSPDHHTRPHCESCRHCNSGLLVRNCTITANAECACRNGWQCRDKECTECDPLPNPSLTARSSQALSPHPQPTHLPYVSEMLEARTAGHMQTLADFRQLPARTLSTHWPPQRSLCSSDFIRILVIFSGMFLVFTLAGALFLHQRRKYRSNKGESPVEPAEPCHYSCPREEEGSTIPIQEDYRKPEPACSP
Method: Approximately 19% of the human population expresses a natural CD27 variant harboring an A59T mutation in the extracellular domain (SEQ ID NO. 2). […] Non-binding antibody IgG1-b12-FEAL was used as a negative control antibody. […] After incubation, antibodies were PE-labeled with polyclonal goat anti-human IgG. Binding was analyzed on a FACSCelesta flow cytometer (BD) and FlowJo software. Data were processed and visualized using GraphPad Prism v.8. *N.B. IgG1-CD27-A, -B and -C carried mutations F405L-L234F-L235E-D265A in the IgG Fc domain, which are functionally irrelevant in the context of this experiment.

[5] = target: T2, cynomolgus monkey CD27 expressed on …; test: flow cytometry on HEK293F cells transiently transfected with cynomolgus monkey CD27, PE-labelled goat anti-human IgG, median MFI PE
Method: as §1, §2

[6] = target: T4, human C1q (from normal human serum) (human, UniProt P02745 23-245; P02746 28-253; P02747 29-245); test: flow cytometry: human T cells opsonised with the antibody, 20% normal human serum as source of C1q, FITC-labelled rabbit anti-human C1q
T4 construct: 20% normal human serum was the source of C1q
T4 sequence (P02745 23-245 limits assumed, chain 1 of 3): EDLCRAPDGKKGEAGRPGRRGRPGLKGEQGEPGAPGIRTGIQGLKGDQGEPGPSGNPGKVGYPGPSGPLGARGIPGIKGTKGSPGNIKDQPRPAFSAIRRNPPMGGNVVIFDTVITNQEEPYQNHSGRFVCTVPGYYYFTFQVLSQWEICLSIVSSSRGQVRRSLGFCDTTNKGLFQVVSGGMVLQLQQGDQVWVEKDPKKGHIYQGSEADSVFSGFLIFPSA
T4 sequence (P02746 28-253 limits assumed, chain 2 of 3): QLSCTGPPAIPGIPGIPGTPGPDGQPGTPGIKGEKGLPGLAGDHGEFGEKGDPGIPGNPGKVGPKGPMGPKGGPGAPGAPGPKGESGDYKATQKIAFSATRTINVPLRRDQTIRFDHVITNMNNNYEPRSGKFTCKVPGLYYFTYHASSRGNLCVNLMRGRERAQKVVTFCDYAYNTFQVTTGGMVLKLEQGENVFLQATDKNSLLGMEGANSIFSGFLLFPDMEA
T4 sequence (P02747 29-245 limits assumed, chain 3 of 3): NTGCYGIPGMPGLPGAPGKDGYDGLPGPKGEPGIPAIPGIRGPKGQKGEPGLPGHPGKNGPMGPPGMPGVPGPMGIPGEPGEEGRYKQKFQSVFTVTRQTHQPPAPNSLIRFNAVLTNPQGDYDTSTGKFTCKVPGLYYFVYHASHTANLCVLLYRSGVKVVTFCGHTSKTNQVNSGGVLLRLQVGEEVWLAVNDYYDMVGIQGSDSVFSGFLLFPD

[7] = target: T5, recombinant His-tagged human FcγRIa (Sino Biological, Cat #10256-H08S-B) (human, UniProt P12314 16-288); test: SPR (Biacore): His-tagged FcγRIa captured on an anti-His chip, antibody injected; resonance units against antibody concentration
T5 construct: Bought protein; not shown: His tag
T5 sequence (P12314 16-288 limits assumed, stated change not applied): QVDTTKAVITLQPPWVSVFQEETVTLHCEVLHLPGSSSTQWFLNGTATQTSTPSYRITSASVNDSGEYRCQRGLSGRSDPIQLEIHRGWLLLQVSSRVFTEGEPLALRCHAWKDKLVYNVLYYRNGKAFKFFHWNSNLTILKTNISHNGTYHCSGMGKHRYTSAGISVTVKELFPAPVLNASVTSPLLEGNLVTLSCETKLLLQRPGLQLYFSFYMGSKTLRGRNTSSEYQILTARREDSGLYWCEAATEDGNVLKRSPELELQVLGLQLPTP
Method: Binding of IgG1-CD27-A-P329R-E345R to human FcγR variants was analyzed using a Biacore surface plasmon resonance (SPR) system and compared to an anti-HIV gp120 antibody IgG1-b12 (ctrl). Biacore Series S Sensor Chips CM5 (Cytiva, Cat #29104988) were covalently coated with anti-His antibody using amine-coupling and His capture kits (Cytiva, Cat #BR100050 and Cat #29234602) according to the manufacturer's instructions. […] After three cycles of buffer, antibody samples were injected for 36 cycles to generate binding curves using antibody ranges of 0-3,000 nM for FcγRI and 0-10,000 nM for the other FcγRs. Each sample that was analyzed on an FcR-coated surface (Active Surface) was also analyzed on a parallel flow-cell without FcR (Reference Surface), which was used for background correction. Dissociation from the anti-His-coated surface was performed by regeneration of the surface using 10 mM Glycine-HCl pH 1.5 (Cytiva, Cat #BR100354). Sensograms were generated using Biacore Insight Evaluation software (Cytiva) and a four-parameter logistic (4PL) fit was applied to calculate relative binding of IgG1-CD27-A-P329R-E345R against the reference sample (ctrl).

[8] = target: T6, human FcγRIa on monocyte-derived macrophages (M0, M1, hMDM) (human, UniProt P12314 16-374); test: flow cytometry on M0 monocyte-derived macrophages, PE-labelled goat anti-human IgG
T6 construct: whole, on cells; The macrophages also express FcγRII and FcγRIIIa
T6 sequence (P12314 16-374): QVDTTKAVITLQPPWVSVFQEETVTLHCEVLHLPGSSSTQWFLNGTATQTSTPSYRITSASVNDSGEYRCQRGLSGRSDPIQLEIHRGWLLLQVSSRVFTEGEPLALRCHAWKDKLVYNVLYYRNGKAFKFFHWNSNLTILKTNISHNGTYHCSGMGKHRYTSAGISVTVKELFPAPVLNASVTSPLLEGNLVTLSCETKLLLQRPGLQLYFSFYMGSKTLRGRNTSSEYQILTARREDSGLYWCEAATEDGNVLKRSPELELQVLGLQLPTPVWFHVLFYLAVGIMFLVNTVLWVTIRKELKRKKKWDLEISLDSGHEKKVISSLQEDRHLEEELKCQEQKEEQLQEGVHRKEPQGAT

[9] = target: T1, human CD27 expressed on cells (T cells, …); test: flow cytometry on CD4+ T cells in human PBMC, FITC-conjugated goat anti-human IgG F(ab')2, median FITC
Method: Binding of IgG1-CD27-A-P329R-E345R to CD27 on human healthy donor T cells was characterized in more detail using flow cytometry. Anti-HIV gp120 antibody variant IgG1-b12-P329R-E345R was used as non-binding control antibody (ctrl). Human PBMCs were isolated from buffy coats obtained from human healthy donors. PBMCs (1×10⁵ cells/well) in FACS buffer were added to polystyrene 96-well round-bottom plates (Greiner bio-one, Cat #650101) and pelleted by centrifugation at 300×g for 3 min at 4° C. The cells were resuspended in 50 μL/well serial antibody dilutions in FACS buffer (range 0.0015 to 10 μg/mL in 3-fold dilution steps) and incubated for 30 min at 4° C. Cells were pelleted, washed twice with FACS buffer and incubated in 50 μL/well with FITC-conjugated secondary antibody (FITC AffiniPure F(ab′)₂ fragment goat anti-human IgG, F(ab′)₂ fragment specific, Jackson ImmunoResearch, Cat #109-096-097, diluted 1:100) for 30 min at 4° C. in the dark. […] The samples were measured by flow cytometry on an LSRFortessa (BD) flow cytometer and analyzed using FlowJo software. Binding curves were analyzed using non-linear regression (sigmoidal dose-response with variable slope) using GraphPad Prism 8 software.

B1: IgG1-CD27-A carrying mutations F405L-L234F-L235E-D265A in the IgG Fc domain (antibody, V domains shown)
VH: QVQLMQSGSELKKPGASVKVSCRASGYTFTTYAMNWVRQAPGQGPEWMGWINTNTGNPTYAQGFTGRFVFSLDTTVTTTYLQISSLKAEDTAVYFCAREAGSFDYWGQGTLVTVSS
VL: QSALTQPASVSGSPGQSITISCTGTSSDVYYYNYVSWYQQHPGRAPKLVIYDVSNRPSGVSNRFSGSKSGNTASLTISGLRAEDEADYYCSSYTVNRVWVFGGGTKLTVL
[1]
  EC50 (read off the curve): ~0.04 µg/mL
[2]
  EC50 (read off the curve): ~0.04 µg/mL
[3]
  EC50 (read off the curve): ~0.1 µg/mL
[4]
  EC50 (read off the curve): ~0.2 µg/mL
[5]
  EC50 (read off the curve): ~0.06 µg/mL

B2: IgG1-CD27-A (wild-type IgG1 Fc) (antibody)
VH: not shown
VL: QSALTQPASVSGSPGQSITISCTGTSSDVYYYNYVSWYQQHPGRAPKLVIYDVSNRPSGVSNRFSGSKSGNTASLTISGLRAEDEADYYCSSYTVNRVWVFGGGTKLTVLGQPKAAPSVTLFPPSSEELQANKATLVCLISDFYPGAVTVAWKADSSPVKAGVETTTPSKQSNNKYAASSYLSLTPEQWKSHRSYSCQVTHEGSTVEKTVAPTECS
notes: Human IgG1 heavy chain backbone, wild-type Fc; also called WT IgG1-CD27-A; IgG-CD27-A
[6]
  binding result: no binding (tested: 15 µg/mL)

B3: IgG1-b12-FEAL (antibody, V domains shown)
VH: QVQLVQSGAEVKKPGASVKVSCQASGYRFSNFVIHWVRQAPGQRFEWMGWINPYNGNKEFSAKFQDRVTFTADTSANTAYMELRSLRSADTAVYYCARVGPYSWDDSPQDNYYMDVWGKGTTVIVSS
VL: EIVLTQSPGTLSLSPGERATFSCRSSHSIRSRRVAWYQHKPGQAPRLVIHGVSNRASGISDRFSGSGSGTDFTLTITRVEPEDFALYYCQVYGASSYTFGQGTKLERK
notes: also called ctrl
[4]
  binding result: no binding (tested: 10 µg/mL)

B4: IgG1-b12 (wild-type IgG1 Fc) (antibody)
VH: not shown
VL: EIVLTQSPGTLSLSPGERATFSCRSSHSIRSRRVAWYQHKPGQAPRLVIHGVSNRASGISDRFSGSGSGTDFTLTITRVEPEDFALYYCQVYGASSYTFGQGTKLERKRTVAAPSVFIFPPSDEQLKSGTASVVCLLNNFYPREAKVQWKVDNALQSGNSQESVTEQDSKDSTYSLSSTLTLSKADYEKHKVYACEVTHQGLSSPVTKSFNRGEC
notes: also called WT IgG1-b12; ctrl
[7]
  EC50 (read off the curve): ~60 nM

B5: IgG1-b12-P329R-E345R (antibody)
VH: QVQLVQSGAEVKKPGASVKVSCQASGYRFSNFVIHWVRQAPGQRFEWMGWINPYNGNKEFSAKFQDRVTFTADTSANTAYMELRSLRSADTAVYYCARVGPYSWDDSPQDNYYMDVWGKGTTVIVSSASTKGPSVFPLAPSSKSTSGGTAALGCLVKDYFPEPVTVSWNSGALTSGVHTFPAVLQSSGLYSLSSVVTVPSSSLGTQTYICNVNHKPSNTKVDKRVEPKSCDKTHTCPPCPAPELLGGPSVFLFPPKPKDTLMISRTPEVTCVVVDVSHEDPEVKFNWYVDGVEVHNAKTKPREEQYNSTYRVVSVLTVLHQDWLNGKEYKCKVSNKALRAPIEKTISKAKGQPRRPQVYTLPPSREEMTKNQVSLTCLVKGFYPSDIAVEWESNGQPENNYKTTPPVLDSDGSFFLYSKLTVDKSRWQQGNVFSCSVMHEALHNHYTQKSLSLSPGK
VL: B4 VL
notes: also called ctrl; IgG1-b12-E345R-P329R
[8]
  binding result: no binding (tested: 30 µg/mL)
[9]
  binding result: no binding (tested: 10 µg/ml)
